{
  "source": "paper PMC4383501",
  "about": "“Computational Selection of RNA Aptamer against Angiopoietin-2 and Experimental Evaluation”",
  "key": {"[1]": {"molecular_target": "T1, Angiopoietin-2 (Ang2), active human (human, UniProt O15123 19-496)", "T1 sequence (O15123 19-496)": "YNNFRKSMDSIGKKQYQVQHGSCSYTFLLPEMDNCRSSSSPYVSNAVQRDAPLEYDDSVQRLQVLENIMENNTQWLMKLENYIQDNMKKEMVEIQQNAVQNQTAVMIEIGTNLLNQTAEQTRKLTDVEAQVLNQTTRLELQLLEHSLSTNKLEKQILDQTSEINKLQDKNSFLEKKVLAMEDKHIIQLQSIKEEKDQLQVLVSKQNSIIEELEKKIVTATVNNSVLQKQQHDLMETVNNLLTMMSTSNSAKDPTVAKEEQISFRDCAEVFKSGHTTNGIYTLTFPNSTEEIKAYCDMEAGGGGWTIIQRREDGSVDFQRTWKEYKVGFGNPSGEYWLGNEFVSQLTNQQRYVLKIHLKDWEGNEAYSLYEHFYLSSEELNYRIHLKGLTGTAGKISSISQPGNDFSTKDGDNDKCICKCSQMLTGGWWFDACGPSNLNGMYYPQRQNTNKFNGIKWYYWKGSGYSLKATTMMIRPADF", "assay": "SPR; kon 4.07e3 M-1s-1; koff 0.79e-3 s-1; SPR imaging, biotinylated RNA on streptavidin/BAT-PEG chip, 0.5 uM Ang2 in TBS pH 7.4, 9 min association, 6 min TBS rinse; temperature not stated", "details": "protein: commercial; label: 5' biotin; single strand"}, "[2]": {"molecular_target": "T1, Angiopoietin-2 (Ang2), active human", "assay": "SPR; kon 6.03e3 M-1s-1; koff 0.61e-3 s-1; SPR imaging, biotinylated RNA on streptavidin/BAT-PEG chip, 0.5 uM Ang2 in TBS pH 7.4, 9 min association, 6 min TBS rinse; temperature not stated", "details": "protein: commercial; label: 5' biotin; single strand"}, "[3]": {"molecular_target": "T1, Angiopoietin-2 (Ang2), active human", "assay": "SPR; kon 8.22e3 M-1s-1; koff 0.97e-3 s-1; SPR imaging, biotinylated RNA on streptavidin/BAT-PEG chip, 0.5 uM Ang2 in TBS pH 7.4, 9 min association, 6 min TBS rinse; temperature not stated", "details": "protein: commercial; label: 5' biotin; single strand"}, "[4]": {"molecular_target": "T1, Angiopoietin-2 (Ang2), active human", "assay": "SPR; kon 1.66e3 M-1s-1; koff 4.99e-3 s-1; described as very weak, partly nonspecific adsorption; SPR imaging, biotinylated RNA on streptavidin/BAT-PEG chip, 0.5 uM Ang2 in TBS pH 7.4, 9 min association, 6 min TBS rinse; temperature not stated", "details": "protein: commercial; label: 5' biotin; single strand"}, "Angiopoietin-2 (human)": {"molecular_target": "Angiopoietin-2 (human) (Homo sapiens (Human), UniProt O15123 19-496)", "sequence (O15123 19-496)": "as above", "assay": "SPR; TBS pH 7.4, 25 C", "details": "label: 5'-biotin (5'-A5 is a spacer)"}, "[5]": {"molecular_target": "T1, Angiopoietin-2 (Ang2), active human", "assay": "SPR; kon 10.02e3 M-1s-1; koff 1.39e-3 s-1; SPR imaging, biotinylated RNA on streptavidin/BAT-PEG chip, 0.5 uM Ang2 in TBS pH 7.4, 9 min association, 6 min TBS rinse; temperature not stated", "details": "protein: commercial; label: 5' biotin; single strand"}},
  "data": [
    {"binder": "AAAAAUUAACCAUCAGAUCAUGGCCCCUGCCCUCUCAAGCACCAC (ssRNA)", "note": "[Seq2_12_35 (biotin-A5)]", "values": [
      {"measurement": "Ka", "setting": "[1]", "result": "5.15 10^6 M^-1"}
    ]},
    {"binder": "AAAAAGAGGACGAUGCCGACUAGCCUCAUCAGCUCAUGUCCCCCUC (ssRNA)", "note": "[Seq15_12_35 (biotin-A5)]", "values": [
      {"measurement": "Ka", "setting": "[2]", "result": "9.89 10^6 M^-1"}
    ]},
    {"binder": "AAAAAGAGGACGAUGCGGAUUAGCCUCAUCAGCUCAUGUGCCGCUC (ssRNA)", "note": "[Seq15_15_38 (biotin-A5)]", "values": [
      {"measurement": "Ka", "setting": "[3]", "result": "8.47 10^6 M^-1"}
    ]},
    {"binder": "AAAAAACUCGAACAUUUCCACUAACCAACCAUACUAAAGCACCGC (ssRNA)", "note": "[Seq16 (biotin-A5), Ang1-specific aptamer]", "values": [
      {"measurement": "Ka", "setting": "[4]", "result": "0.33 10^6 M^-1"}
    ]},
    {"binder": "AAAAAACUCGAACAUUUCCACUAACCAACCAUACUAAAGCACCGC (ssRNA)", "note": "[Seq16 (Ang1 aptamer / negative control)]", "values": [
      {"measurement": "Kd", "setting": "Angiopoietin-2 (human)", "result": 3030, "unit": "nM"}
    ]},
    {"binder": "AAAAAACUAGCCUCAUCAGCUCAUGUGCCCCUCCGCCUGGAUCAC (ssRNA)", "note": "[Seq1 (biotin-A5)]", "values": [
      {"measurement": "Ka", "setting": "[5]", "result": "7.23 10^6 M^-1"}
    ]},
    {"binder": "AAAAAACUAGCCUCAUCAGCUCAUGUGCCCCUCCGCCUGGAUCAC (ssRNA)", "note": "[Seq1]", "values": [
      {"measurement": "Kd", "setting": "Angiopoietin-2 (human)", "result": 138, "unit": "nM"}
    ]}
  ]
}
